From the DeepSol protein solubility set

Assay: soluble on expression in E. coli; label from the status in PepcDB or PDB records

Sequence | soluble on expression in E. coli
MLSALACNMKYSSHPAAVAAGRGGNRRGGRMYAYERITDPAGFAAIEDEWRALAEACGGGGVFASHAFLLSWAETFGQGRRLAVSLLRHKGALVGALPMFHTGQARAVAAMGEGRAGMAQWLLHPDLPDADAALAALLRPDWLSFWRLEPLETPDAEALERAARRAGLAVRRKATMRACSVTTEGDFDSYLGGLKSKTRQVFRRSERKLAEMEVRDLRSDRDGRAALDAYLAASRASWKGLTGTGYGAAPEGVAFVEKLFERLGPEACYLAARQVGEVAISGRFVLVHDNMHYGMANDFNEEYADLAVGRNSIMQSVRDAFEGGAAGFDFTRCNGLVREVSTDERPLERVLIHRRGDPTLAAFFAARGLRRLRRKASGWQKGRRGVVS | not soluble
SNAMLDITTITRQNVTSVVGYYSDAKDDYYSKDSSFTSWQGTGAEALGLSGDVESARFKELLVGEIDTFTHMQRHVGDAKKERLGYDLTFSAPKGVSMQALIHGDKTIIEAHEKAVAAAVREAEKLAQARTTRQGKSVTQNTNNLVVATFRHETSRALDPDLHTHAFVMNMTQREDGQWRALKNDELMRNKMHLGDVYKQELALELTKAGYELRYNSKNNTFDMAHFSDEQIRAFSRRSEQIEKGLAAMGLTRETADAQTKSRVSMATREKKTEHSREEIHQEWASRAKTLGIDFDNREWQG | soluble
MNALEPLFARLARSTFRSRFRLGIKERQYCWDKGAEVIDKHAADFIAQRLAPAHPANDGKQTPMRGHPVFIAQHATATCCRGCLAKWHQIPQGEPLSEAQQQYIVSVIHYWLVIQMNQR | not soluble
MRKMNLIVAMDAEGGIGKNGVLPWRIKKDMQYFASVTKNVSDQSKRNAVLMGRKCWESIPVTRRPLAGRLNIVLSRQLPAQKSDDYIVVNSLEAAMKLLSEPPFVDSIETIWNIGGAEIYDLALRENLVDEIHLTRIFKNFEADVHLKSLDFSKMEKVQNAEVSSENSEIFEENGLKFEFCKWKVVENH | not soluble
MNEKQKRFADEYIMNGCNGKKAAISAGYSKKTAESLASRLLRNVNVSEYIKERLEQIQEERLMSITEALALSASIARGEPQEAYSKKYDHLNDEVEKEVTYTITPTFEERQRSIDHILKVYGAYIDKKEITQKNIEINIGEYDDESLEHHHHHH | soluble
MGHHHHHHSHFLSSSTYPEIHGFLHAKEQGKKSWKKIYFFLRRSGLYFSTKGTSKEPRHLQFFSEFGNSDIYVSLAGKKKHGAPTNYGFCFKPNKAGGPRDLKMLCAEEEQSRTCWVTAIRLLKYGMQLYQNYMHPYQGRSGCSSQSI | not soluble
MGSDKIHHHHHHMSESDGQSTPQDTREVIMEATFRALSKHGYKDLRVRDIGEEMEMSRQVIHYHFDGKYDLISSFLEYIIDQYEGSVEVDDETDPRTELDVRIDRCLFGPEFDDFSHWDRMKVYHELYAYAQNDDEHRALFNEHYDRLRKSISTVIEDGVEQGTFLDVDAELMGQLITDVIHAARGRRIALGHEDAPDEAKRAVNDFILDSLYPPQ | not soluble
MSLSHMGIFKFANGTIRVKDLEKSIEFYRDVIGMHELAREKGVVYFGCGADETFDIAIKEGGTGVEQFALQVADEEDIQYYEKKLTNLGISTQRMSNPEPGKKVALRFAAPSGHQLELALMEDRPHYLHPVAGHKGSRGIGILDADHITLHTKDVKGLAEFLQEALDFRVADVFEPAPGVWGAAWTHASDYHHDVALIGTSEDTTLHHFAFLVSGFEDMKRACDLLAQAGYKIETGPGRHGVGGNLFTYFLDPSGNRIELSAEMPRADRSVPHKVWPDFPPAFSTWGALPPESFAKGEGHHHHHH | soluble
MSLVLLYTPKQKTKNVQTITADILDLDYQGLGVAKINGKTWFIENALPHEKVECRILEDKRQYGHAIVKKWRVKSPERLEPKCAHFMRCGGCQGQHIPIEMQRKAKESALFKRLSKLQSEPISFQPMICGDAWAYRRRVRLSLWFNPSTKQIEMGFRQKNTNDLIPVQSCEVAEPAINYLLPKLTALLEKFSAPKQLGHIELVAADNGVAMLLRYTKNLAEIDRTLLLKFAEQEKLMLFLQSDKGIEQIYGDAPYYQFSDGIKLHFDIRDFIQVNSALNEPMVNTALDWLELSQQDCVLDLFCGMGNFTLPLAKRVKSAVGIEGVFEMVQKAAQNAERNQIKNIEFFQADLDQSFVEQPWANQSFNKILLDPPRSGAAFALNALCELKAEKILYVSCNPATLVRDAEILCNFGYKIEKSAVIDMFPHTGHLESITLFTTKEGHHHHHH | soluble
MSKKLKPFEILEDSCASVCIWLNGEPTAISNRAENLWNKAKYRVATDGAVNEILKRKSFVEWPHIICGDFDSINKQIDTKNAKVVHLPDQDYTDLSKSVQWCLEQKTLTSWEFENIVVLGGLNGRFDHTMSTLSSLIRFVDSQTPVIVLDSRNLVLAVPTGDSNLDVNLEMTTKMCGIIPIVQKETIKTLLLNLENLSARRMKLPRAKYF | not soluble
MDERRKRKAKDQLSPYSNPDEENDRHNTAIEPSPSASRKRAKARVGDLGTIADSGPLKGVLSSVNILKPRIRSDRISGLNRCFVNAVQKVVEKESNKSLLYLFRQYEKYYEELNEASD | not soluble
MGSDKIHHHHHHMFDLNDLFYFVQVVECRGFAPASRKLGIPKSKLSRRIAGLEERLGVSLIHRSTRKFAVTESGRDYYGHCVAMLVEADAAEEAIQRSKSEPQGKVVISCPPAMAAMGINEAIAGFMAAHPKVQVHIESTNRRVDPLIENIDIALRVRFPPLEDDGLVVKTLGHSAQRLVAHPDLAALLPANASFEALARLPSLDVTSSTPEHRWLLENGPGHYVEVRHAPRLVSSDLDAILQAALQGVGVAQLPEILVREALQQGRMVELFDAHRPKCGILHAVFVSRRGLLPAVRGLLDAFESSFTELTHNPESLYCSLHRTNSRIQGD | not soluble
MQEIQLSPADDLQQALNNSQNGDVITLGPGSYFGNFIISNQVTLRSNNKGEAIIDSQGKGHGLWLKNSQITIENLTITNWGHDLTDQNSGIYSHGKIDNNKVPSLTIRNNILIGDGFGIWLNQADKAIISHNRVKGNLTLRSADRGNGIQVANVTNSHVFLNEVSETRDGVYVISSQNNIIEQNTMHHLRYGIHYMYSYDNTVKNNTAYDTRAGYALMSSRRLTITGNKTTNSEDYGFLLNFITQSTFSHNYVKNVWTKPENKVLGRDGKGLFVYNSGYNTVKHNIIDTAEIGIHLTAGSENIKIFGNSFINNPTQVKYVSNKKQEWSKDGRGNYWSNYLGWDMGNDGIGDTIFEPNDGIDKLVWQYPEMKMIMDSPAILILRWVQRQFPVLKPPGVKDSFPLMSAPSLTKNEQAATPLAVTTSTFTKSNSAQSANTTSASLKELEHHHHHH | not soluble
MSLIPVVLSGGAGTRLWPVSREGQPKPFMRLPDGQTLLGKTYRRAAGLLAGHGEIVTVTNREHYFQSKDQFHAARLGRHRGHFILEPTGRNTAPAIAVAALGLQAEHGDAAVLVVMPADHLIRNEEAFREAVGHAARLAVAGHLVTFGVVPDAAETGFGYIELGDRLDEQGAAKVRRFVEKPDEETRRRYVESGGFLWNSGMFCFTASTLVDELAQHAPALLEQARACLAASAAVKMADGIQHELAGEGFAALPDISIDYALMERSARVAVVPAAFDWSDIGSWGAMSALLDADAEGNRGSGDTLFVDTRNTFVQSDGRLVATVGVDDLVVVDTSDALLIARADRVQEVRRVVQRLKDEREGHHHHHH | soluble
MSLKTGRFDQAQADAFAERLLSVLNDAALTLMISIGHRTGLFDVMDKLDFASSEVIAEAAGCNERYVREWLNALVVGGIVDYDAHTKAYQLPAEHASFLTRKSSPQNMAVVAQFIPVLAYVENGIVDAFKHGGGVPYEAYHRFHEVMAEESGQTILSSLTDKILPMVHGLVDKLNQGIQVLDIGCGYGRALILMAKTYPQSQFTGYDLCDETIAHAVHSAKKNKIQNIHFEKMDLSVWDEQEKYDLITSFDVIHDQAKPAQVLSNVFKALKPHGIFLMQDIKTSSDVAGNVHHPLGALIYTISCMHCMTVSLSQNGLGLGAAWGEELAEKMLVEAGFGKIEKHYLEHDIMNTYYVMRKEGHHHHHH | soluble
MDAENEDFDGAEDSDHTDNDKKEDELSLDNVLRLGGTKADYVMLAGISDTTELINGGKKVIIDDLEEGELEDFIKQLGIRAYADQQIIQDEEDPASSEPTQKEGKKAKGSKVKEDAAPNVKNKVTPSTQATKTSVQSTNLANATGKKAKQKPANLFEFIPRQFLLIKPGGKWFDIEYTSEGTSVAQNESLTCQYKALAQKLYENETALYKSKKSLQKGANSAWMKTRKLRTFSQHPFEELEEKSSGNKDTRDRRLILWYFEHQLKLQIADFVVTLDELAHDMVEATKMRALTTAYELLCNQPEQEKLLLVQIVNKLEDA | soluble
MASSIDPLTRLHGILSSYLSEVLGVDRSVVERLLAPPPRKEYGDLGFPLMRFARSSNASADSIVESLRGKLWERGITWASPTLEAGYLNIVFDVEKLGDEVFRLLASGWRPSTARTSRPETIVVEHTSANPIHPLHLGHARNSSLGDALARLLEARGHRVNRRFYVDDVGRQAVVASLGFKLSGVTPRELASRMGVKVDHAVGWVYAVTHNALETVTARKRGDTSKVDEALSTLARLKERGDREVFDRILEAVGSLDDPEGLVSEMMRKYERGEEPEKSLIRGVVSAVLEGFRETLGRFGVDFDDWDWESDLLWSGLVNKIIEEARRSPFLTTHKDAIALDIPRIVREVLARDPEAASTIKLPRSLEIPPLILVRSDGTTLYTTRDLAYSVYKFRVTGADRVINVIGADQRLPQLQIRLALLGLGYRREALNMMHYDYEIVSLPGRRMSSRRGEYVTLDELLEMAKARSVREVESRNPGADRDWIESTAEKIAVGAVRFALVRPGRLKPITLDVERILDLKENTAPYLQYTYARASSILEKHGEIDYLKAHPASLEEGSRRELFVEALRFPLVSAKAADDLAPEDLASYLLRLADMFNSWYQKDSVIHEEWEGARHAKAALVLLVKSVIGEGLRLLGVEPLEKM | soluble
QLKDKFDGRPTKPPPNSYSLYCAELMANMKDVPSTERMVLCSQQWKLLSQKEKDAYHKKCDQKKKDYEVELLRFLESLPEEEQQRVLGEEKMLNI | soluble
MGSDKIHHHHHHMTAANTQHVEHINECTLESVIDLIRDADKPMVFKGLCHHWPLVQAGLESAQSAMTYLRQFYQGMPVTAYYVPPEQHGRVFYNEQLDGFNYQAGRLDFNQLLDRLSQEMIKDMPAGMYMGSTDIHQCLPGLGAQNSLDLAPMQPLTSIWLGNQTKVAAHYDFPLNLACNVVGKRTFTLFPPEQISNLYVGPMELAPGGQDISLVDMANPDFERFPRFQHALDASLTAELSPGDVLFIPSMWWHHVRGVDDFNVLITHWWRDTPGFLGRPNNALLHSILSLRSLPKAQRQAWKSIFEHYIFDHDDVDDSHIPDNVKGMQTKPLDELTARKIRADLINKLKR | not soluble
MSLTELPRIISVDDHVIEPAHLFETWLPKKYRDRGPKPLTAGIGELAYVGGKYQITMDPKGPPTDWWIYEDLKFPYKRNIAAVGFDRDEMTLEGITRAEMRRGCWDPVERLKDMDANHVEGSLCFPTFPRFCGQTFAEAHDKEVALACVRAYNDWMVEEWCGDSGGRLIPLCLIPLWDIGLAVAEIRRNAARGVKAVTFSEIPTHLGLPSIHSGYWDPFFAVCQETGTVVNMHIGSSSQMPAASPDAPPAVQAALSFNNAMASMMDFLFSGVLVKFPRLKLAYSEGQMGWIPYALERADDVWEEHRAWGGVRDLIPEPPSTYYYRQIFCCFFRDKHGVASIDVVGRDNATFETDYPHVDSTFPHTKEVALDHVEGLDDETVYKLMRGNAIRMLDLDLDRDLDHLGNRDHLGARDTLSSRDKADREGHHHHHH | soluble
